Assays:
[1] = target: AAV2-E548 capsid (wild-type AAV2 capsid) (Adeno-associated virus 2, wild type …, UniProt P03135); test: cell-based or functional assay
[2] = target: AAV2-G548 capsid (adeno-associated virus 2); test: ELISA; plates coated with 10^9 vector genomes of AAV variants in 0.1 M sodium bicarbonate buffer pH 9.6 overnight at 4°C; antibody serially diluted in PBS with 1% BSA, 37°C for 1.5 hours; anti-mouse IgG-HRP, OD450; EC50 from a sigmoidal fit
[3] = target: AAV2-G548 capsid (adeno-associated virus 2)

AAV2-E548 capsid (wild-type AAV2 capsid), sequence (P03135 whole entry, looked up, the tested form may be a part): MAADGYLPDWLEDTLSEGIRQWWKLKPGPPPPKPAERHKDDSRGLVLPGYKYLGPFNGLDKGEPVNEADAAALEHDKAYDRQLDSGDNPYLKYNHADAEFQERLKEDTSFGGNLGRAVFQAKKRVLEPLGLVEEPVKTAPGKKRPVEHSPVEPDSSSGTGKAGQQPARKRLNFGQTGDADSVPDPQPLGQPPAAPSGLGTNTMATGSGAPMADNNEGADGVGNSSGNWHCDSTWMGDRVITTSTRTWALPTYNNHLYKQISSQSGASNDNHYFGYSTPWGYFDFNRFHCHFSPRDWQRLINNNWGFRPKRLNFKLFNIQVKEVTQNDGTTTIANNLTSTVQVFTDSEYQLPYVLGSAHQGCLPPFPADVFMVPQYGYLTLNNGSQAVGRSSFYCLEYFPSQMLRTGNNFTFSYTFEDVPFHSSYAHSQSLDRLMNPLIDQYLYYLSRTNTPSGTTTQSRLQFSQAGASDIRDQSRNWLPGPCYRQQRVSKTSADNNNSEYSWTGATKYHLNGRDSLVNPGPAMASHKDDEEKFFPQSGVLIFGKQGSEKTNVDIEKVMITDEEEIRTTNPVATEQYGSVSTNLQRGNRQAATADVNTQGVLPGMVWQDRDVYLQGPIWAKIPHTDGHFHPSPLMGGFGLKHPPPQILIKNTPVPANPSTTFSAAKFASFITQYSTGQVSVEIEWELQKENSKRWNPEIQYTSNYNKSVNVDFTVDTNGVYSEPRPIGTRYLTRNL

B1: mouse monoclonal antibody A20 (antibody, V domains shown)
VH: DVQLQESGPDLVKPSQSLSLTCTVTGYSITSGYTWHWIRQFPGNKQEWMGYIHFSGYTNYNPSLKSRVSITRDTSKNQFFLHLNSVTTEDTATYYCARGDYGYEWFTYWGQGTLVTVSA
VL: DIQMTQSSSSFSVSLGDRVTITCKASEDIHNRLAWYKQKPGNAPRLLISGATSLETGVPSRFSGSGSGKDYTLSITSLQNEDVATYYCQQYWIGPFTFGSGTNLEIK
neutralization of the lacZ AAV vector's transduction of 293 cells (β-galactosidase assay), average IC50 [1]: 0.2 µg/mL
OD450 at the highest A20 concentration (10 μg/ml) [2]: 0.132 OD450
neutralization of the lacZ AAV vector's transduction of 293 cells (β-galactosidase assay), average IC50 [3]: 0.201 µg/mL

Source: publication PMC11182496, “Dissecting positive selection events and immunological drives during the evolution of adeno-associated virus lineages” (PLOS Pathogens, 2024)
